Laboratory results: publication PMC10397247

Legend:
Test in all cases: two-hybrid library CCmax;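 note: natural log of median RNA to DNA barcode read ratio; higher means stronger binding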
[1] = molecular target: T1, 4H3162-AA; details: mean of both orientations
T1 chain: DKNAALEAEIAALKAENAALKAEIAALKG

[2] = molecular target: T2, 4H3606-AA; details: mean of both orientations
T2 chain: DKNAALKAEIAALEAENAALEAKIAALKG

[3] = molecular target: T3, 4H32-AA; details: mean of both orientations
T3 chain: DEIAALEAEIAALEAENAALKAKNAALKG

[4] = molecular target: T4, 4H3378-AA; details: mean of both orientations
T4 chain: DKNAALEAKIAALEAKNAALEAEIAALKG

[5] = molecular target: T5, 4H982-AA; details: mean of both orientations
T5 chain: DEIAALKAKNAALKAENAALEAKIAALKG

[6] = molecular target: T6, 4H340-AA; details: mean of both orientations
T6 chain: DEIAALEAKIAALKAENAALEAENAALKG

[7] = molecular target: T7, 4H3631-AA; details: mean of both orientations
T7 chain: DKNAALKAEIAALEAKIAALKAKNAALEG

[8] = molecular target: T8, 4H3133-AA
T8 chain: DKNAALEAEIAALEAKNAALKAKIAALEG

[9] = molecular target: T9, 4H697-AA; details: mean of both orientations
T9 chain: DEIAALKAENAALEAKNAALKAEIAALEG

[10] = molecular target: T10, 4H3865-AA; details: mean of both orientations
T10 chain: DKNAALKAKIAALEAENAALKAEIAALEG

[11] = molecular target: T11, 4H3718-AA; details: mean of both orientations
T11 chain: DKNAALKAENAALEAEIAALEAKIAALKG

[12] = molecular target: T12, 4H3413-AA; details: mean of both orientations
T12 chain: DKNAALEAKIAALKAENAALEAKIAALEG

[13] = molecular target: T13, 4H384-AA; details: mean of both orientations
T13 chain: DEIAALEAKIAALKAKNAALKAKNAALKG

[14] = molecular target: T14, 4H3697-AA; details: mean of both orientations
T14 chain: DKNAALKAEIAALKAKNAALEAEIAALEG

[15] = molecular target: T15, 4H3588-AA; details: mean of both orientations
T15 chain: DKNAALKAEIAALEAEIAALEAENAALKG

[16] = molecular target: T16, 4H406-AA; details: mean of both orientations
T16 chain: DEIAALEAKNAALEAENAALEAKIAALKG

[17] = molecular target: T17, 4H3073-AA; details: mean of both orientations
T17 chain: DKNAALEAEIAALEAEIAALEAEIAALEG

[18] = molecular target: T18, 4H3438-AA; details: mean of both orientations
T18 chain: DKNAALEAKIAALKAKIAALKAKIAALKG

[19] = molecular target: 4H_GCN4
Chain of 4H_GCN4 (chain, as listed by the source): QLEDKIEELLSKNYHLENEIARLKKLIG

[20] = molecular target: T19, 4H452-AA; details: mean of both orientations
T19 chain: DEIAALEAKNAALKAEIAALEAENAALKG

[21] = molecular target: T20, 4H_APH; details: mean of both orientations
T20 chain: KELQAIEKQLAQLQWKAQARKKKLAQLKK

[22] = molecular target: T21, 4H3015-AA
T21 chain: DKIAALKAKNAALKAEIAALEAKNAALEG

[23] = molecular target: T22, 4H_BCR; details: mean of both orientations
T22 chain: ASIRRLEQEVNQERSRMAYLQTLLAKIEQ

[24] = molecular target: T23, 4H56-AA; details: mean of both orientations
T23 chain: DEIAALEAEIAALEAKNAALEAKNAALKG

[25] = molecular target: GCN2_T; details: mean of both orientations
[26] = molecular target: T24, 4H347-AA; details: mean of both orientations
T24 chain: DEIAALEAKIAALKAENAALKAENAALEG

[27] = molecular target: T25, APC8191-AA; details: mean of both orientations
T25 chain: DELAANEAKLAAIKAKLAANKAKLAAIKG

[28] = molecular target: T26, APC7099-AA; details: mean of both orientations
T26 chain: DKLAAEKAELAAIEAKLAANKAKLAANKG

[29] = molecular target: T27, APC9319-AA; details: mean of both orientations
T27 chain: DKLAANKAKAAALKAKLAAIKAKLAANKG

[30] = molecular target: T28, APC5383-AA
T28 chain: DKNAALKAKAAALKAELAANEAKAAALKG

[31] = molecular target: T29, APC8910-AA; details: mean of both orientations
T29 chain: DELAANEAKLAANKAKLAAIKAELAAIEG

[32] = molecular target: T30, APC6108-AA; details: mean of both orientations
T30 chain: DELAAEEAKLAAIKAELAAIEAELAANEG

[33] = molecular target: T31, APC9096-AA; details: mean of both orientations
T31 chain: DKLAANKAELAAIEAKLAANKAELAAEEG

B1: 4H3133-AA (peptide)
chain: DKNAALEAEIAALEAKNAALKAKIAALEG
interaction score [1]: -1.24 | interaction score [2]: 1.29 | interaction score [3]: -1.83 | interaction score [4]: -1.1 | interaction score [5]: 0.112 | interaction score [6]: -0.539 | interaction score [7]: -0.654 | interaction score [8]: -0.726 | interaction score [9]: -1.6 | interaction score [10]: 0.466 | interaction score [11]: -0.85 | interaction score [12]: 1.97 | interaction score [13]: -1.58 | interaction score [14]: -0.244 | interaction score [15]: -1.47

B2: 4H3015-AA (peptide)
chain: DKIAALKAKNAALKAEIAALEAKNAALEG
interaction score [16]: -0.891 | interaction score [17]: 0.065 | interaction score [18]: -1.63 | interaction score [19]: -1.28 | interaction score [20]: -1.36 | interaction score [21]: -2.92 | interaction score [22]: -1.16 | interaction score [23]: -1.81 | interaction score [24]: -1.59 | interaction score [25]: -1.44 | interaction score [26]: -1.96

B3: APC5383-AA (peptide)
chain: DKNAALKAKAAALKAELAANEAKAAALKG
interaction score [27]: -2.31 | interaction score [28]: -1.61 | interaction score [29]: -2.03 | interaction score [30]: -1.83 | interaction score [31]: -1.6 | interaction score [32]: -1.32 | interaction score [33]: -1.73
